For two molecules, Kd results are on record in paper PMC11032447 (2024).

For orientation: Kd means the equilibrium constant for the complex coming apart. Lower therefore signals tighter binding.

The labels stand for the following.
B1: helix-b of the Habc domain of mouse syntaxin-4 (domain or fragment)
chain: TPLPEESMKQGLQNLREEIKQLGREVRAQLKAIEPQKE

What all share (experiment): ITC
A general note: Isothermal titration calorimetry measures the heat released or taken up as one component is titrated into another.

One experiment addresses T1, mouse secretagogin M229A (mouse, UniProt Q91WD9 1-276, M229A).
T1 sequence: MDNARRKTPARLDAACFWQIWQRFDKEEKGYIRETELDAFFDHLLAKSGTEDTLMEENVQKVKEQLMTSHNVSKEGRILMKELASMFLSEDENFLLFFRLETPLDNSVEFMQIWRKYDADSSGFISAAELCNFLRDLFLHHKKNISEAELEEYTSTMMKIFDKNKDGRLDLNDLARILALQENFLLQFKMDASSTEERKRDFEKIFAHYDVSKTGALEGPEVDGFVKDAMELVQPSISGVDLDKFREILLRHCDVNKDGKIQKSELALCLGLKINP

Another experiment concerns the target T2, mouse secretagogin R198A (mouse, UniProt Q91WD9 1-276, R198A).
T2 sequence: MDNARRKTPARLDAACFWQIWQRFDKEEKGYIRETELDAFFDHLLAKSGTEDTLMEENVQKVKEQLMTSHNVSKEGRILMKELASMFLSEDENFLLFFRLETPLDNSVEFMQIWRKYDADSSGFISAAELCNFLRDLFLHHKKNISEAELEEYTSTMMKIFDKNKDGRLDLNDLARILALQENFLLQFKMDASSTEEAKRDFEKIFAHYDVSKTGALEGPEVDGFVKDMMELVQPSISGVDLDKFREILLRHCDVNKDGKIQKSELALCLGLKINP

In a further experiment the target is T3, mouse secretagogin V233A (mouse, UniProt Q91WD9 1-276, V233A).
T3 sequence: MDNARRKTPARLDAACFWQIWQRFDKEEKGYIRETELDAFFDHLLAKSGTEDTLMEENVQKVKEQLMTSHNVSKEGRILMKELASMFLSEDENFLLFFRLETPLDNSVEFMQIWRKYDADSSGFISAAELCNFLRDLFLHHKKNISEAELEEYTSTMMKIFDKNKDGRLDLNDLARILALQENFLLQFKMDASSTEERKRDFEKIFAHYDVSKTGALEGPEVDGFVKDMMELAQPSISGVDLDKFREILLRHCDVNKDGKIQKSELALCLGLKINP

The target in another experiment is T4, mouse secretagogin M229E (mouse, UniProt Q91WD9 1-276, M229E).
T4 sequence: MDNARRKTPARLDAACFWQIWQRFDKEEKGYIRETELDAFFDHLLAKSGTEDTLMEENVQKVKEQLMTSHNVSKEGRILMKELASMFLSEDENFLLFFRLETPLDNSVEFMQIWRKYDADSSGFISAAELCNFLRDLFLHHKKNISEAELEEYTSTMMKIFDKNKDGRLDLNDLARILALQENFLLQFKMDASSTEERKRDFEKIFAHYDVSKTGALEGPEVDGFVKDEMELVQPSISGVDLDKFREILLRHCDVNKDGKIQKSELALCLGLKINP

Experiment [1] deals with C-terminal SNARE domain of mouse SNAP-25 (mouse, UniProt P60879 140-206).
The target in experiment [2] is B1.

Chain of C-terminal SNARE domain of mouse SNAP-25 (P60879 140-206): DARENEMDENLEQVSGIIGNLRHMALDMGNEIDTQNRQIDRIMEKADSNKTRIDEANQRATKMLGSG

Regarding B1, the Kd with mouse secretagogin M229A turned out to be 1620 nM; with mouse secretagogin R198A, 808 nM; with mouse secretagogin V233A, 125 nM; with mouse secretagogin M229E, 5.21 µM.

B2: mouse secretagogin (natural protein)
chain: MDNARRKTPARLDAACFWQIWQRFDKEEKGYIRETELDAFFDHLLAKSGTEDTLMEENVQKVKEQLMTSHNVSKEGRILMKELASMFLSEDENFLLFFRLETPLDNSVEFMQIWRKYDADSSGFISAAELCNFLRDLFLHHKKNISEAELEEYTSTMMKIFDKNKDGRLDLNDLARILALQENFLLQFKMDASSTEERKRDFEKIFAHYDVSKTGALEGPEVDGFVKDMMELVQPSISGVDLDKFREILLRHCDVNKDGKIQKSELALCLGLKINP
Regarding B2, the Kd in experiment [1] was determined as 21.9 nM; in experiment [2] it was 407 nM.
